We go through 1 molecule from patent US20260098102A1 (NATIONAL UNIVERSITY CORPORATION KOBE UNIVERSITY, published 2026).

The target of experiment [1] is T1, human SIRPA_V1 protein (human, UniProt P78324 31-504).
T1 construct: Expressed on 293α cells from pcDNA3.2 V5-DEST or pFLAG V5-DEST (FLAG-tagged) vectors; also called human SIRPA Variant 1; hSIRPA V1
Kind of experiment: cell-based ELISA on 293α cells expressing FLAG-tagged SIRPA_V1; Abs 490 normalized to FLAG tag. On the procedure:
The 293α cells [described in Example 1)-6] were prepared in a 10% FBS-containing DMEM medium to 5×10⁵ cells/mL. pFLAG V5-DEST-SIRPA_V1, pFLAG V5-DEST-SIRPA_V2, or pFLAG V5-DEST was introduced into the cells using Lipofectamine LTX (Invitrogen), followed by addition of 100 μL per well to a 96-well plate (Corning Incorporated), and cells were cultured overnight in the 10% FBS-containing DMEM medium at 37° C. under a 5% CO₂ condition. The obtained introduced cells were used for cell-based ELISA in a state that they adhered to each other. After the culture supernatant was removed, 50 μL per well of the cD13 (IgG2 and IgG4pf), cF44 (IgG1, IgG2, IgG4p, and IgG4pf), and cF63 (IgG2 and IgG4pf) antibodies prepared in Examples 3 and 4 were added to each of pFLAG V5-DEST-SIRPA_V1, pFLAG V5-DEST-SIRPA_V2, or pFLAG V5-DEST-introduced cells at final concentrations of 0 to 10,000 ng/mL, and the mixture was allowed to stand at 4° C. for one hour. Further, 50 μL per well of anti-FLAG M2 antibody (SIGMA) diluted with 5% FBS-containing PBS to a final concentration of 10,000 ng/mL was added to a well for detecting expression of each SIRPA construct, and the mixture was allowed to stand at 4° C. for one hour. The cells in the well were washed once with 5% FBS-containing PBS, followed by addition of Peroxidase AffiniPure F(ab′)₂ Fragment Goat Anti-Human IgG, Fcγ Fragment Specific (Jackson ImmunoResearch) diluted 1000-fold with 5% FBS-containing PBS, and the mixture was allowed to stand at 4° C. for one hour. The cells in the well were washed five times with 5% FBS-containing PBS, followed by addition of 100 μL per well of an OPD coloration solution [o-phenylenediamine dihydrochloride (Wako Pure Chemical Industries, Ltd.) and H₂O₂ were dissolved in an OPD solution (0.05 M trisodium citrate, 0.1 M disodium hydrogen phosphate dodecahydrate, pH 4.5) at 0.4 mg/mL and 0.6% (v/v), respectively]. A coloration reaction was performed with stirring occasionally, 100 μL per well of 1 M HCl was added to terminate the coloration reaction, and then absorbance at 490 nm was measured with a plate reader ARVO (PerkinElmer Inc.). Binding of the human chimeric anti-human SIRPA antibodies to each construct was standardized by expression of the FLAG tag.

Experiment [2] addresses T1, human SIRPA_V1 protein. Kind of experiment: blocking cell-based ELISA: peroxidase-labeled CD47-Fc (10,000 ng/mL) on 293α cells expressing SIRPA_V1; y axis = CD47-Fc signal in % of no antibody [i]. On the procedure:
After the culture supernatant of the human SIRPA and monkey SIRPA expression vector-introduced 293α cells prepared in Examples 5)-1 and 5)-2, respectively, was removed, 50 μL per well of cD13 (IgG2 and IgG4pf), cF44 (four different constant regions IgG1, IgG2, IgG4p, and IgG4pf), and cF63 (IgG2 and IgG4pf) diluted with 5% FBS-containing PBS to final concentrations of 0 to 10,000 ng/mL were added to each of pcDNA3.2 V5-DEST-SIRPA_V1, pcDNA3.2 V5-DEST-monkey SIRPA, and pcDNA3.2 V5-DEST-introduced 293α cells, immediately followed by addition of 50 μL per well of peroxidase-labeled CD47-Fc prepared in 5% FBS-containing PBS at a final concentration of 10,000 ng/ml, and the mixture was allowed to stand at 4° C. for one hour. Thereafter, the SIRPA-CD47 binding inhibitory activity was evaluated in the same manner as in 1)-6-3.
A general note: ELISA stands for enzyme-linked immunosorbent assay.

T1 sequence (P78324 31-504 limits assumed): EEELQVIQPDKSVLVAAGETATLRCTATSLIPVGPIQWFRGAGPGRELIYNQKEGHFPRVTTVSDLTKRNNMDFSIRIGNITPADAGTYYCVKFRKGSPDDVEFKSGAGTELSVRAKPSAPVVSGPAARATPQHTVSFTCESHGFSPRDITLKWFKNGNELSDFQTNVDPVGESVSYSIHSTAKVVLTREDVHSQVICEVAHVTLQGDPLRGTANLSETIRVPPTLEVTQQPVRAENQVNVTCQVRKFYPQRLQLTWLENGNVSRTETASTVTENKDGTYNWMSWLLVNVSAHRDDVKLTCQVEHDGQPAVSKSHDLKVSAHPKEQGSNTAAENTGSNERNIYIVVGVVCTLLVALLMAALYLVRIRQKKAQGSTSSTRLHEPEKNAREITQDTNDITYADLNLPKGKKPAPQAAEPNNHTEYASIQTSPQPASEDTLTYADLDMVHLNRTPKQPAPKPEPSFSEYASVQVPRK

B1: human chimeric anti-SIRPA antibody cD13 (antibody, human IgG4 S228P, kappa, F234A L235A, V domains shown)
VH: EVQLVESGGGLVQPGRSLKLSCLASGFTFSDYGMIWVRQAPGKGLEWVASISSSSSYIYYADTVKGRFTISRENAKNTLFLHMTSLRSEDTALYYCARRYYGFNYPFDYWGQGVMVTVSS
VL: DTVLTQSPALAVSLGQRVTISCGASKSVRTYMHWYQQKSGQQPKLLIYSASNLEAGVPSRFSGSGSGTDFTLTIDPVEADDIANYYCQQSNEPPYTFGAGTKLELKR
notes: Human IgG4proFALA heavy chain, human kappa light chain; also called cD13 (IgG4pf); human chimeric antibody D13
What is called EC50 (read off the curve) is the midpoint of the concentration-response curve. A low value points to a more potent agent. Turning to B1, the 50% effective concentration (EC50 (read off the curve)) in experiment [1] was approximately 0.08 µg/mL. Moreover, the “IC50 (read off the curve)” value in experiment [2] was approximately 0.1 µg/mL.
